Consider 167 variants from the RNAGym collection of RNA variant scans (doi:10.1073/pnas.2313332121).

This sample holds only a part of the variants without activity.

B1: TPR 5TU (parent)
chain: GGAUCUUCUCGAUCUAACAAAAAAGACAAAUCUGCCACAAAGCUUGAGAGCAUCUUCGGAUGCAGAGGCGGCAGCCUUCGGUGGCGCGAUAGCGCCAACGUUCUCAACUAUGACACGCAAAACGCGUGCUCCGUUGAAUGGAGUUUAUCAUG

The series covers variants of B1. Kind of series: polymerase ribozyme fitness, log enrichment relative to wild type (log ratio); higher = more active; in vitro selection for triplet polymerase activity. The gist of the method: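 In triplicate, a single round of in vitro selection was run on each mutant library, PCR-built and transcribed, covering one subunit of a heterodimeric triplet polymerase ribozyme. Frozen incubation at −7 °C followed annealing with a biotinylated primer, partner subunit and triplets, and extended constructs were then gel-excised, streptavidin-captured and taken through RT-PCR. Fitness is the logarithm of genotype enrichment over wild-type enrichment, from inverse-variance-weighted replicate averages of Illumina-sequenced inputs and outputs. […] only genotypes with ≥10 input reads and ≥1 read per output were kept.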
C69A U90A A147C: the “polymerase ribozyme fitness (log ratio)” value is not above -4.2.
Under A47G G59A C103A C131U U134C stands -2.12; under A16G A49G A73C A91G U144C, not above -4.2; under U7C U53A, -2.82.
As for A47C A110U, the figure is not above -4.2; as for U44A C76U C87A C105A A107G U127A U145C G152U, not above -4.2; as for U4G A21C U56G C85U G124U, -1.58.
As for G83A G143A, the figure is -1.28; as for C27U C95A A138G, not above -4.2.
As for C5G U7C U13A A16G C51U G92C A98G C114A, the “polymerase ribozyme fitness (log ratio)” value was -4.13.
As for U56A G84C A150G, the figure is -3.39; as for A73G C93U, -1.28.
As for C5A A20U A47U G74C G117A G126U, the figure is not above -4.2.
C54U G84A C93G: the “polymerase ribozyme fitness (log ratio)” value is not above -4.2.
C38A A52G C63A: the “polymerase ribozyme fitness (log ratio)” value is -1.26.
As for A97G G112A A121C G141U, the figure is not above -4.2.
As for A17G A21C G46C G58U U135G, the figure is -4.12; as for A49U A52G U61G C93U, -3.49.
On to C5U A22U C69A G88U, for which the “polymerase ribozyme fitness (log ratio)” value was not above -4.2.
Under A16U A26G U53C G84C C87A G128C G141A stands not above -4.2; under G25U C116U A122U, -4.04.
Under C76U C93G stands -2.8.
Regarding U44C A98G, the “polymerase ribozyme fitness (log ratio)” value is -3.97.
As for A21G U56G G80U G88A C105G A120U C149U, the figure is not above -4.2.
On to C14A U55G C63G C93U C118U, for which the “polymerase ribozyme fitness (log ratio)” value is not above -4.2.
Regarding U13G U56A A91G, the “polymerase ribozyme fitness (log ratio)” value is -3.81.
Turning to G62C A64G G83C U102G C114U U127G, the “polymerase ribozyme fitness (log ratio)” value is not above -4.2.
Under C72U A89C C95U C105U stands -1.12; under C14U A52U C85G G133C A142G, not above -4.2; under A28G A49G C54U C85A U144G, not above -4.2.
As for A47C U77A C79A A89U, the figure is not above -4.2; as for A52G U55C, -0.523.
As for U15G C36U A47C C96G U144C, the figure is not above -4.2; as for A89G A98G C99G, -2.3; as for C38U U55A C69G A115G A137G A142G, not above -4.2.
Consider A3U A89C C95A A110C, for which the “polymerase ribozyme fitness (log ratio)” value is not above -4.2.
As for C57G U148A, the figure is -3.25; as for G50U G83A U146C A147C, -2.91.
As for G59A U82G G117U, the figure is 0.479; as for U82A A106C, -0.884; as for C5U A20G A49U G86U, -3.71.
As for C14U U45G C87A C95U C103A, the figure is -4.17.
With G58U U148A, the “polymerase ribozyme fitness (log ratio)” value is -3.05.
Under A24G C27G A30U G48C G92U stands not above -4.2; under C93G C103G C118A G136U U146C, not above -4.2; under G11U A22G G59U G65C A98U U127C C129G, not above -4.2.
As for G59C A97U A106G C118G G124A U145G, the figure is -2.18.
As for C54U G59A C76A C85U, the figure is 0.107.
As for A49U C75U U102G, the “polymerase ribozyme fitness (log ratio)” value is -2.65.
Under U56A U144C stands 0.537; under A26C G50A G67A G70C G83U C87U U90C, not above -4.2.
As for A40G A98G A113C, the figure is not above -4.2; as for U15C C38U G86A C87U C99U, -3.87.
As for G94A G143C, the figure is -2.41; as for C85U A107C C131U, -4.07.
As for C18A C38A A47C C93A A98U, the “polymerase ribozyme fitness (log ratio)” value was -3.69.
As for A28U G86A, the figure is -4.08; as for U55A G58U C79U G88A A106G, not above -4.2.
As to G59A A150U, the “polymerase ribozyme fitness (log ratio)” value was found to be 0.933.
As for G11A U61A G67C C87G G141U, the figure is not above -4.2; as for U6G G92U C105A C114G A142U, not above -4.2; as for U31G A73G G84A, 0.0111.
As for G58U G80U U104G, the figure is -2.41; as for A19G G25U G50A C93U A120G, not above -4.2.
Under G42A G81U A91C G92U C95G A107C C108A C114G G141A stands not above -4.2.
On to A20U A30U A39G C75A, for which the “polymerase ribozyme fitness (log ratio)” value is not above -4.2.
Consider U33C G59C A64G C96G U130C, for which the “polymerase ribozyme fitness (log ratio)” value was not above -4.2.
Under A17U A28U G83U C96A C99U C132G stands not above -4.2; under G58A G81A G86A C93U G112C C116U C149G, 1.13; under C36U U146G, -3.6.
As for C93U A121U U127C, the figure is -2.87; as for U7G U55A A91U U130A G141C, not above -4.2.
Consider A28U C32A G50C C96A A106G U127G, for which the “polymerase ribozyme fitness (log ratio)” value was not above -4.2.
As for C95U U101C, the figure is -0.173; as for A21U C108U, -3.78.
As for C10U A52C U55A A97G A98G C129U, the figure is not above -4.2; as for C8G A24C G65U C87A C95U C105G, not above -4.2.
Under A17G C57U G94C U139C U144A stands not above -4.2; under C35A G94C G128A, not above -4.2.
For A20U A91U A115U, the “polymerase ribozyme fitness (log ratio)” value was -4.17.
Turning to U53A G92C, the “polymerase ribozyme fitness (log ratio)” value was -3.01.
Under A12C C35U A39G G59A C85A C87U stands not above -4.2; under U6G U31G A73G G86A A137U, not above -4.2.
Under C8U A17G A39G G84U C116A C118G U139C stands not above -4.2; under A41C C123U G126A U135G, -3.4.
For C10A C14G U53A C57A G84A C99U G126A, the “polymerase ribozyme fitness (log ratio)” value was not above -4.2.
As for G50C U53A C57G G70A G100C A120G, the figure is not above -4.2; as for A19U A22G A52C C114A A142G, not above -4.2; as for G71C C87G G128A, not above -4.2.
As for A49G U135C U145C, the figure is -2.6.
As for A39C U61A C87U G94U U101C A147U, the figure is not above -4.2; as for U15A C76U C99G C105G, not above -4.2.
With A40C A60U G81C A138G C149A, the “polymerase ribozyme fitness (log ratio)” value is not above -4.2.
U44G: the “polymerase ribozyme fitness (log ratio)” value was -3.7.
As for C96U C116U, the figure is -0.186; as for A29U U77A C95G, not above -4.2; as for A49G C87G, -4.02.
Under U15A A28U G34A A47U C96U G117A stands not above -4.2; under A60G C85A U104A A142U, -3.14; under C96G A98U G100A C108G G133C, not above -4.2.
As for U44G U45G A97C, the figure is not above -4.2; as for A22G G92C, 0.21; as for A21C C54A, 0.0369.
Take G42A G50C: the “polymerase ribozyme fitness (log ratio)” value was not above -4.2.
For G81A A120G U148C, the “polymerase ribozyme fitness (log ratio)” value is -2.99.
Take C14G A28U A29C C32G U44G C63U G83A G86C C105U C108U G143U: the “polymerase ribozyme fitness (log ratio)” value is not above -4.2.
Consider G59A C85A, for which the “polymerase ribozyme fitness (log ratio)” value was -1.04.
Regarding G59C C93U G124C C125U A147U, the “polymerase ribozyme fitness (log ratio)” value was -0.985.
Turning to A30U G42U G65A G86U A121U, the “polymerase ribozyme fitness (log ratio)” value is not above -4.2.
As for C14U C76G, the figure is not above -4.2; as for G58C A60G G81U G88A C108G G117C A119U G143C, not above -4.2; as for C75U G94A A142C, -2.13.
In the case of C8G U78A, the “polymerase ribozyme fitness (log ratio)” value was not above -4.2.
As for G46U U144C, the figure is -0.573.
As for A28G C54G C76U G94A, the figure is -4; as for U7A C87U C96A A150U, -3.72; as for G62A A73C C87G, not above -4.2.
Under G59A U61A C72A stands not above -4.2.
Regarding C18G G50A A91G G94C C132G, the “polymerase ribozyme fitness (log ratio)” value was not above -4.2.
For A16U, the “polymerase ribozyme fitness (log ratio)” value is -1.62.
On to A47G U55A A89C C95U U146A, for which the “polymerase ribozyme fitness (log ratio)” value was -1.95.
Take C5U A40G C85G: the “polymerase ribozyme fitness (log ratio)” value was -3.18.
As for A40G U61C G92U U145G, the figure is not above -4.2.
As for A24U C35A U45G A47C G48C A64C C93G, the figure is not above -4.2.
As for U56C C69A U135A, the figure is -3.01.
Take U13G C51U U56A G86U A115U: the “polymerase ribozyme fitness (log ratio)” value was not above -4.2.
As for U55C U82G C95U, the figure is -0.677.
As for A20G G67U, the figure is -2.82; as for G74A G92C C149A, not above -4.2; as for A28C A49U U55A U61A C76A A142C U146A, not above -4.2.
Regarding G59C U102G, the “polymerase ribozyme fitness (log ratio)” value was -2.05.
As to A37C U55G G81A C87A A106C A107U G143U, the “polymerase ribozyme fitness (log ratio)” value was not above -4.2.
As for A39G U56A G58U G141A, the figure is -1.28; as for A12U C38A G59U C87A A97U, not above -4.2.
Under C5U C99U stands 0.209; under G62C A97G, -0.203.
As for A39U U55G G81U C103A, the figure is not above -4.2; as for C54A G92U, -2.39; as for C54U G86U A150U, -0.319.
Turning to U15A C18G U146G, the “polymerase ribozyme fitness (log ratio)” value is -0.119.
Regarding A21U C93U, the “polymerase ribozyme fitness (log ratio)” value is -0.752.
Under C54A C85G stands -3; under U9A G94A, -3.69.
In the case of C76U U78C A137G, the “polymerase ribozyme fitness (log ratio)” value was -2.11.
Under C14A C18G A41C G42A G59C G68A C95U stands not above -4.2; under G11U A26G C54U A142C, not above -4.2.
Under A91G G141C stands -2.86.
As for U55A G68A G86U U90A A97U U101A A137C U145C, the figure is not above -4.2; as for A40U G117C, -0.102; as for C8U A20C G50A U82G C93U C95U A142G, not above -4.2.
On to A20U G84U C108U, for which the “polymerase ribozyme fitness (log ratio)” value is not above -4.2.
Take C5A C8U U9G C51U C85U A106U A107C C118A: the “polymerase ribozyme fitness (log ratio)” value is not above -4.2.
Under A52G G117A stands -0.121; under U45A A106C, -0.488; under A26G G50C A91G G117A C125U G140A G143C, not above -4.2.
On to G42A C76U G81U G83C A110U C114G, for which the “polymerase ribozyme fitness (log ratio)” value is not above -4.2.
With G58C C93A, the “polymerase ribozyme fitness (log ratio)” value was -2.61.
For A20U A41C, the “polymerase ribozyme fitness (log ratio)” value is -2.09.
Under A122U stands -0.218; under U15C C54U, 0.268.
Under C32U U44A A91G C118A stands not above -4.2; under A41U U102C U146G, -3.93; under C18G A41U A91G U148G, not above -4.2.
Under C72U G86A G100C C131A U135A stands not above -4.2.
As for U44A A47C U56A G84C C87G, the “polymerase ribozyme fitness (log ratio)” value was not above -4.2.
C36A U56A U77G C87U U102A A119C: the “polymerase ribozyme fitness (log ratio)” value was not above -4.2.
Under A23G G58A C87U A121C stands -3.82.
